Test results as given in patent US20140235701, “NGF APTAMER AND APPLICATION THEREOF” (RIBOMIC INC., published 2014).

Columns and labels:
Details in all cases: tags: R&D Systems; chain copies: 2
[1] = target: T1, NGF (nerve growth factor) (Homo sapiens, UniProt P01138 P01138:122-241); assay: SPR; neurite inhibition at 10 nM; no TF-1 inhibition
Experimental: The cells (2500 cells per well) were cultured for one day in an RPMI-1640 medium containing 2.5% horse serum and 1.25% fetal bovine serum in a 96 well flat-bottom plate coated with collagen type IV. […] Two days later, the cytoplasm and nuclei were stained using Cellomics Neurite Outgrowth Kit (manufactured by Thermo Scientific), and neurite length per cell was measured by Cellomics ArrayScan VTI (manufactured by Thermo Scientific). With the neurite length per cell obtained by the addition of NGF alone as inhibitory activity 0%, and that of the cell obtained by NGF free culture for 2 days as inhibitory activity 100%, the inhibitory activity of the aptamer was calculated from the neurite length per cell obtained by culturing with the addition of NGF and the aptamer in mixture.
Two NGF receptor (human TrkA and human p75) genes were introduced into TF-1 cells (ATCC Number: CRL-2003), which is a human erythroleukemic cell line, by using a retrovirus vector to give cells that highly express two receptors simultaneously and stably. The cells were suspended in an RPMI-1640 medium containing 20% fetal bovine serum, and seeded in a white 96 well flat-bottom plate at 1000 cells (50 μL) per well. […]

[2] = target: T1, NGF (nerve growth factor); assay: cell_activity; neurite outgrowth inhibition; TF-1 IC50 6.924 nM
[3] = target: T1, NGF (nerve growth factor); assay: SPR; 145 mM NaCl, 5.4 mM KCl, 1.8 mM CaCl2, 0.8 mM MgCl2, 20 mM Tris pH 7.6; strong inhibition of NGF-receptor binding
[4] = target: T1, NGF (nerve growth factor); assay: cell_activity; neurite; TF-1 0.03
[5] = target: T1, NGF (nerve growth factor); assay: cell_activity; neurite; TF-1 0.035
NT-3 (neurotrophin-3) = target: T2, NT-3 (neurotrophin-3) (Homo sapiens, UniProt P20783 P20783:139-257); assay: cell_activity; TF-1
T2 sequence: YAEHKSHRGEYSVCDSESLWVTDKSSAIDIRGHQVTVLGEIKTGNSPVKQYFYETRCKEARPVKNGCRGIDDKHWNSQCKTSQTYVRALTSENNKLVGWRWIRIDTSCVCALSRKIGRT

NT-4 (neurotrophin-4) = target: T3, NT-4 (neurotrophin-4) (Homo sapiens, UniProt P34130 P34130:81-210); assay: cell_activity; TF-1
T3 sequence: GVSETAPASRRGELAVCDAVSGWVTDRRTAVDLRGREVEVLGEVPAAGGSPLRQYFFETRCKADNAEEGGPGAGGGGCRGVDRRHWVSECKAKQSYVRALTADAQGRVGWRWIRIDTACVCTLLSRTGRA

[6] = target: T1, NGF (nerve growth factor); assay: cell_activity; neurite; TF-1 0.087
[7] = target: T1, NGF (nerve growth factor); assay: cell_activity; neurite; TF-1 0.046
[8] = target: T1, NGF (nerve growth factor); assay: cell_activity; neurite; TF-1 0.036
[9] = target: T1, NGF (nerve growth factor); assay: cell_activity; neurite; TF-1 0.075
[10] = target: T1, NGF (nerve growth factor); assay: cell_activity; neurite; TF-1 0.030
[11] = target: T1, NGF (nerve growth factor); assay: cell_activity; neurite; TF-1 0.051
[12] = target: T1, NGF (nerve growth factor); assay: cell_activity; neurite; TF-1 0.097
Experimental: (§1) With the neurite length per cell obtained by the addition of NGF alone as inhibitory activity 0%, and that of the cell obtained by NGF free culture for 2 days as inhibitory activity 100%, the inhibitory activity of the aptamer was calculated from the neurite length per cell obtained by culturing with the addition of NGF and the aptamer in mixture.
(§2) Two NGF receptor (human TrkA and human p75) genes were introduced into TF-1 cells (ATCC Number: CRL-2003), which is a human erythroleukemic cell line, by using a retrovirus vector to give cells that highly express two receptors simultaneously and stably. The cells were suspended in an RPMI-1640 medium containing 20% fetal bovine serum, and seeded in a white 96 well flat-bottom plate at 1000 cells (50 μL) per well. […] With the amount of luminescence per well obtained by the addition of NGF alone and culture of the cells for 3 days as inhibitory activity 0%, and that of the well obtained by NGF free culture for 3 days as inhibitory activity 100%, the inhibitory activity of the aptamer was calculated from the amount of luminescence per well obtained by culturing with the addition of NGF and the aptamer in mixture.

[13] = target: T1, NGF (nerve growth factor); assay: cell_activity; neurite; TF-1 0.043
[14] = target: T1, NGF (nerve growth factor); assay: cell_activity; neurite; TF-1 0.027
[15] = target: T1, NGF (nerve growth factor); assay: cell_activity; neurite; TF-1 0.028
Experimental: as §1, §2

[16] = target: T1, NGF (nerve growth factor); assay: cell_activity; neurite; TF-1 0.083
[17] = target: T1, NGF (nerve growth factor); assay: cell_activity; neurite; TF-1 0.071
[18] = target: T1, NGF (nerve growth factor); assay: cell_activity; neurite; TF-1 0.025
[19] = target: T1, NGF (nerve growth factor); assay: cell_activity; neurite; TF-1 0.033
[20] = target: T1, NGF (nerve growth factor); assay: cell_activity; neurite; TF-1 0.031
Experimental: as §1, §2

[21] = target: T1, NGF (nerve growth factor); assay: cell_activity; neurite; TF-1 0.073
[22] = target: T1, NGF (nerve growth factor); assay: cell_activity; neurite; TF-1 0.093
[23] = target: T1, NGF (nerve growth factor); assay: cell_activity; neurite; TF-1 0.979
[24] = target: T1, NGF (nerve growth factor); assay: cell_activity; neurite; TF-1 0.018
Experimental: as §1, §2

[25] = target: T1, NGF (nerve growth factor); assay: cell_activity; neurite; TF-1 0.178

T1 sequence (P01138 122-241, one chain of several): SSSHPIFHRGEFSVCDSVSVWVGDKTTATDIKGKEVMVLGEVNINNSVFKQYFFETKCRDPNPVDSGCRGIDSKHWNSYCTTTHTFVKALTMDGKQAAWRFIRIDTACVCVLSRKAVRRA

Row | Binder | IC50 (NT-3 (neurotrophin-3)) [pM] | IC50 (NT-4 (neurotrophin-4)) [pM] | other results
1 | SEQ ID NO: 100 (ssRNA, 2'-F C/U, dA, 2'-OH G) RNA: GGGAGAACUUCGACCAGAAGACCAAACGGACUUUAUACCUCUGAGUCGCCUAUGCUCCUAUGUGCGCAUACAUGGAUCCUC | – | – | binding result [1]: binds
2 | GGGUCCUGGUGAUAAGUUUCCGUCUUAUCACCUGUUACCC (ssRNA, 2'-F C and U; 2'-OH G; 2'-H (deoxy) A) [SEQ ID NO: 81] | – | – | IC50 [2]: 765 pM
3 | SEQ ID NO: 1 (ssRNA, 2'-F C and U; 2'-OH G; 2'-H (deoxy) A) RNA: GGGAGAACUUCGACCAGAAGUUGACGACCAACUCGUCUCUUAUGGAUUUACGUGAACCCGUAUGUGCGCAUACAUGGAUCCUC | – | – | binding result [3]: binds
4 | GGGUCCUGGCUAAGAGUUUCCGUCUCGUAGUCUGUUACCC (ssRNA, 2'-OMe G (G8,G34 2'-OH), dA, 2'-F C/U; 5',3' idT) [SEQ ID NO: 80(1)] | – | – | IC50 [4]: 271 pM
5 | GGGUCCUGGAUAAGAGUUUCCGUCUCGUAUCCUGUUACCC (ssRNA, as 82(1) except 2'-OMe C26) [SEQ ID NO: 82(9)] | 34800 | < 3000 | IC50 [5]: 252 pM
6 | GGGUCCUGGAUAAGAGUUUCCGUCUCGUAUCCUGUUACCC (ssRNA, as 82(25) except 2'-OMe C20) [SEQ ID NO: 82(26)] | < 30000 | – | IC50 [6]: 130 pM
7 | GGGUCCUGGAUAAGAGUUUCCGUCUCGUAUCCUGUUACCC (ssRNA, as 82(1) except 2'-OMe U30) [SEQ ID NO: 82(11)] | 38100 | 3420 | IC50 [7]: 253 pM
8 | GGGUCCUGGAUAAGAGUUUCCGUCUCGUAUCCUGUUACCC (ssRNA, as 82(1) except 2'-OMe U11) [SEQ ID NO: 82(4)] | 30400 | 3370 | IC50 [8]: 139 pM
9 | GGGUCCUGGAUAAGAGUUUCCGUCUCGUAUCCUGUUACCC (ssRNA, as 82(1) except 2'-OMe C20) [SEQ ID NO: 82(5)] | 51200 | < 3000 | IC50 [9]: 269 pM
10 | GGGUCCUGGAUAAGAGUUUCCGUCUCGUAUCCUGUUACCC (ssRNA, as 82(1) except 2'-OMe U23) [SEQ ID NO: 82(7)] | < 30000 | 3740 | IC50 [10]: 143 pM
11 | GGGUCCUGGAUAAGAGUUUCCGUCUCGUAUCCUGUUACCC (ssRNA, as 82(1) except 2'-OMe C6) [SEQ ID NO: 82(3)] | 42000 | 9360 | IC50 [11]: 255 pM
12 | GGGUCCUGGAUAAGAGUUUCCGUCUCGUAUCCUGUUACCC (ssRNA, as 82(25) except dU7) [SEQ ID NO: 82(37)] | – | – | IC50 [12]: 98 pM
13 | GGGUCCUGGAUAAGAGUUUCCGUCUCGUAUCCUGUUACCC (ssRNA, as 82(1) except 2'-OMe U35) [SEQ ID NO: 82(15)] | < 30000 | 8350 | IC50 [13]: 127 pM
14 | GGGUCCUGGAUAAGAGUUUCCGUCUCGUAUCCUGUUACCC (ssRNA, as 82(1) except 2'-OMe C31) [SEQ ID NO: 82(12)] | 34700 | < 3000 | IC50 [14]: 127 pM
15 | GGGUCCUGGAUAAGAGUUUCCGUCUCGUAUCCUGUUACCC (ssRNA, as 82(1) except 2'-OMe C40) [SEQ ID NO: 82(18)] | 38700 | < 3000 | IC50 [15]: 244 pM
16 | GGGUCCUGGAUAAGAGUUUCCGUCUCGUAUCCUGUUACCC (ssRNA, as 82(1) except 2'-OMe U4,C6,U11,C21,U23,C26,U28,U30,C32,U35,C38-40) [SEQ ID NO: 82(22)] | < 30000 | – | IC50 [16]: < 100 pM
17 | GGGUCCUGGAUAAGAGUUUCCGUCUCGUAUCCUGUUACCC (ssRNA, as 82(1) except 2'-OMe U25) [SEQ ID NO: 82(8)] | – | – | IC50 [17]: 284 pM
18 | GGGUCCUGGAUAAGAGUUUCCGUCUCGUAUCCUGUUACCC (ssRNA, as 82(1) except 2'-OMe C39) [SEQ ID NO: 82(17)] | < 30000 | < 3000 | IC50 [18]: 127 pM
19 | GGGUCCUGGAUAAGAGUUUCCGUCUCGUAUCCUGUUACCC (ssRNA, as 82(1) except 2'-OMe U28) [SEQ ID NO: 82(10)] | 35300 | < 3000 | IC50 [19]: 128 pM
20 | GGGUCCUGGAUAAGAGUUUCCGUCUCGUAUCCUGUUACCC (ssRNA, as 82(1) except 2'-OMe U4,C6,U11,C21,U23,C26,U30,C32,U35,C38-40) [SEQ ID NO: 82(20)] | < 30000 | – | IC50 [20]: 244 pM
21 | GGGUCCUGGAUAAGAGUUUCCGUCUCGUAUCCUGUUACCC (ssRNA, as 82(25) except dU25) [SEQ ID NO: 82(40)] | – | – | IC50 [21]: 239 pM
22 | GGGUCCUGGAUAAGAGUUUCCGUCUCGUAUCCUGUUACCC (ssRNA, as 82(1) except dC5) [SEQ ID NO: 82(27)] | – | – | IC50 [22]: 250 pM
23 | GGGUCCUGUUCAAGAGUUUCCGUCUCGUGAACUGUUACCC (ssRNA, 2'-F C/U, dA, 2'-OH G) [SEQ ID NO: 88] | – | – | IC50 [23]: 572 pM
24 | GGGUCCUGGCCAAGAGUUUCCGUCUCGUGGUCUGUUACCC (ssRNA, 2'-OMe G (G8,G34 2'-OH), dA, 2'-F C/U; 5',3' idT) [SEQ ID NO: 78(1)] | – | – | IC50 [24]: 120 pM
25 | GGGUCCUGCUCAAGAGUUUCCGUCUCGUGGGCUGUUACCC (ssRNA, as 87(4) plus 2'-OMe A15,A37; no 5' idT) [SEQ ID NO: 87(5)] | – | – | IC50 [25]: 78 pM
